{"source": "paper PMC8892499", "key": {"[1]": {"target": "OmpX_(1,149), double-cysteine variant of outer membrane protein X, labeled with FRET donor and acceptor dyes, unfolded (uOmpX) (UniProt P0A917)", "assay": "single-molecule FRET (smFRET) titration, intramolecular FRET of labeled uOmpX; as the titration at 37 °C, but at 25 °C: 20 pM labeled uOmpX in buffer with Skp3 or SurA; 20 mM Tris-HCl pH 8.0, 150 mM NaCl; Hill coefficient set to 1 (Skp3) and 1.5 (SurA)"}, "[2]": {"target": "OmpX_(1,149), double-cysteine variant of outer membrane protein X, labeled with FRET donor and acceptor dyes, unfolded (uOmpX) (UniProt P0A917)", "assay": "single-molecule FRET (smFRET) titration, intramolecular FRET of labeled uOmpX; global analysis of FRET efficiency distributions at different chaperone concentrations and temperatures (25, 31, 37 °C); ΔH and ΔS from the temperature dependence of Ka; errors by bootstrapping"}, "[3]": {"target": "OmpX_(1,149), double-cysteine variant of outer membrane protein X, labeled with FRET donor and acceptor dyes, unfolded (uOmpX) (UniProt P0A917)", "assay": "single-molecule FRET (smFRET) titration, intramolecular FRET of labeled uOmpX; 20 pM labeled uOmpX diluted from 6 M GdmCl into buffer with chaperone (Skp3 from 0.5 nM to 2.5 µM; SurA 46 nM to 25 µM); 20 mM Tris-HCl pH 8.0, 150 mM NaCl, 6 mM GdmCl, 87.5 nM LDAO; 37 °C; bound fraction from three Gaussian distributions; Hill coefficient set to 1 (Skp3) and 1.5 (SurA)"}, "[4]": {"target": "OmpX_(1,149), double-cysteine variant of outer membrane protein X, labeled with FRET donor and acceptor dyes, unfolded (uOmpX) (UniProt P0A917)", "assay": "single-molecule FRET (smFRET) titration, intramolecular FRET of labeled uOmpX; 20 pM labeled uOmpX diluted from 6 M GdmCl into buffer with chaperone (Skp3 from 0.5 nM to 2.5 µM; SurA 46 nM to 25 µM); 20 mM Tris-HCl pH 8.0, 150 mM NaCl, 6 mM GdmCl, 87.5 nM LDAO; 37 °C; bound fraction from three Gaussian distributions; Hill coefficient set to 1 (Skp3) and 1.5 (SurA)", "remark": "listed apart in the source"}, "[5]": {"target": "OmpX_(1,149), double-cysteine variant of outer membrane protein X, labeled with FRET donor and acceptor dyes, unfolded (uOmpX) (UniProt P0A917)", "assay": "single-molecule FRET (smFRET) titration, intramolecular FRET of labeled uOmpX; global analysis of FRET efficiency distributions at different chaperone concentrations and temperatures (25, 31, 37 °C); ΔH and ΔS from the temperature dependence of Ka; errors by bootstrapping", "remark": "listed apart in the source"}}, "note": "Read-outs that look alike come from different tables or passages of the source.", "data": [{"molecule": "survival factor A (SurA) (from UniProt P0ABZ6 21-428) (natural protein)", "values": [{"measurement": "Kd", "setting": "[1]", "value": 1000, "unit": "nM"}, {"measurement": "c1/2 (inverse of Ka)", "setting": "[1]", "value": 103, "unit": "nM"}, {"measurement": "dH", "setting": "[2]", "value": -31.5, "unit": "kcal/mol"}, {"measurement": "Kd", "setting": "[3]", "value": 8200, "unit": "nM"}, {"measurement": "c1/2 (inverse of Ka)", "setting": "[3]", "value": 407, "unit": "nM"}, {"measurement": "percent of uOmpX molecules bound at ~6 µM SurA", "setting": "[3]", "value": 87, "unit": "%"}]}, {"molecule": "17-kilodalton protein (Skp), trimer (Skp3) (natural protein) ADKIAIVNMGSLFQQVAQKTGVSNTLENEFKGRASELQRMETDLQAKMKKLQSMKAGSDRTKLEKDVMAQRQTFAQKAQAFEQDRARRSNEERGKLVTRIQTAVKSVANSQDIDLVVDANAVAYNSSDVKDITADVLKQVK", "values": [{"measurement": "Kd", "setting": "[1]", "value": 3.6, "unit": "nM"}, {"measurement": "c1/2 (inverse of Ka)", "setting": "[1]", "value": 3.55, "unit": "nM"}, {"measurement": "Kd", "setting": "[4]", "value": 359, "unit": "nM"}, {"measurement": "c1/2 (inverse of Ka)", "setting": "[4]", "value": 359, "unit": "nM"}, {"measurement": "percent of uOmpX molecules bound at 2.5 µM Skp3", "setting": "[4]", "value": 80, "unit": "%"}, {"measurement": "dH", "setting": "[5]", "value": -71.2, "unit": "kcal/mol"}]}]}
